Reference: article PMC7330524, “Genome-Wide Analysis of Serine Carboxypeptidase-Like Acyltransferase Gene Family for Evolution and Characterization of Enzymes Involved in the Biosynthesis of Galloylated Catechins in the Tea Plant (Camellia sinensis)” (Frontiers in Plant Science, 2020)

Experiments:
purified protein = substrate: Oc1cc(O)c2c(c1)O[C@H](c1cc(O)c(O)c(O)c1)[C@H](O)C2; assay: purified protein; details: 0.4 mM PGG as donor, potassium phosphate pH 6.0, 30 °C
[1] = substrate: O=C(OC[C@H]1O[C@@H](OC(=O)c2cc(O)c(O)c(O)c2)[C@H](OC(=O)c2cc(O)c(O)c(O)c2)[C@@H](OC(=O)c2cc(O)c(O)c(O)c2)[C@@H]1OC(=O)c1cc(O)c(O)c(O)c1)c1cc(O)c(O)c(O)c1; assay: HPLC galloyltransferase assay, Lineweaver-Burk; assay type: biochemical, Camellia sinensis; details: 1.0 mM EGC as acceptor, potassium phosphate pH 6.0, 30 °C
[2] = substrate: Oc1cc(O)c2c(c1)O[C@H](c1ccc(O)c(O)c1)[C@H](O)C2; assay: HPLC galloyltransferase assay, Lineweaver-Burk; assay type: biochemical, Camellia sinensis; details: 0.4 mM PGG as donor, potassium phosphate pH 6.0, 30 °C

B1: CsSCPL14-IA (Camellia sinensis var. sinensis) (protein)
chain: SVDDSELFYYFIESEGNPQEDPLFLWLTGGPGCTSFSGLLYEVGPMEYDIDNYTGGLPKLKYYPYARTKTASMIFLDAPVGTGFSYARTPGGWPTSDTKSAEQSYQFLRKWLVEHPQFLSVQLFVGGDSYAGLTVPLITKKIIDGNKEKAKPYMNIKGYLVGCPGTDSVIDGNSRVDFAHRMALISDEIYENAKRSCNENYINVDPANTACITAMGAIQKCLKDLSDKDILKPKCDLSSQDHPEGPDRRFLKEGSSEFLLSPSTFPKPWCTTLKLTHNSIWANDDGVQEALHVRKGTVPRWERCNNSLSYTQDVLSVIAVHKELSRSSLEVLVERFFIFFLLLPAANRPSLPSRPPDNLTHHS
notes: N-terminal 50 residues (transmembrane region) deleted, Met inserted; His-tag (pDEST17); E. coli; nickel resin, partially purified; full protein 413 residues, 46 kD
**Q.** What does the source list for B1?
**A.** Km (purified protein): 103.38 ± 15.63 µM; Vmax (purified protein): 62.5 µmol/min/mg; kcat (purified protein): 1040 s⁻¹; kcat/Km (purified protein): 1.01e+07 M⁻¹ s⁻¹; Km [1]: 20.81 ± 3.51 µM; Vmax [1]: 10.6 µmol/min/mg; kcat [1]: 177 ± 22.8 s⁻¹; kcat/Km [1]: 8.52e+06 ± 1.38e+06 M⁻¹ s⁻¹; Km [2]: 64.28 ± 0.81 µM; Vmax [2]: 20 µmol/min/mg; kcat [2]: 333 ± 35.2 s⁻¹; kcat/Km [2]: 5.19e+06 ± 480000 M⁻¹ s⁻¹

B2: CsSCPL11-IA (Camellia sinensis var. sinensis) (protein)
chain: ELPFKLETGYALIYIRVNESELFYYFIESQGNPQEDPIFLWLPGGPGCSSFHELVYGFGMVKILIVKTASIIFLDAPVGTGFSYSRTADGWPTSDSKSAEQSYQFLREWFDEHPQYLAVQLFVGKGNKDGVKPFMNLKGYLLGSPRTDSVIDENSKVVFAHRMALISDEIYENAKTGCNDTYVSIDPANTACIVALGNIKTCIKDLFRNDILEPKCVFATPDPGEEPAARRSLEEGPSDFLLSPPMIPNLWCRNFNYVLSYIWSNDDTVQEVLHVRKGSVLNWERCNKSLSYTKDILTVVPVHEELKELGLEVLVETGDRDMVVPFVGTVKWIKSLNLTVVNDWRPWFVDGQVAGYTIKYSEHGYRLTYATVKGAGHTAPEYYRMECYYMFDRWIHYYPI
notes: N-terminal 50 residues (transmembrane region) deleted, Met inserted; His-tag (pDEST17); E. coli; nickel resin, partially purified; full protein 450 residues, 51 kD
**Q.** For B2, which Km (purified protein) is on record?
**A.** Its Km is 40.67 ± 5.56 µM.

**Q.** What about the Vmax (purified protein) of the same protein?
**A.** The Vmax was 13.2 µmol/min/mg.

**Q.** What about the kcat (purified protein) of the same protein?
**A.** The kcat was 219 s⁻¹.

**Q.** What about the kcat/Km (purified protein) of the same protein?
**A.** Its kcat/Km is 5.39e+06 M⁻¹ s⁻¹.

**Q.** And the Km [1]?
**A.** Its Km is 13.34 ± 1.78 µM.

**Q.** What about the Vmax [1] of the same protein?
**A.** The Vmax was 4.05 µmol/min/mg.

**Q.** What about the kcat [1] of the same protein?
**A.** The kcat was 67.5 ± 7.34 s⁻¹.

**Q.** What about the kcat/Km [1] of the same protein?
**A.** Its kcat/Km is 5.06e+06 ± 970000 M⁻¹ s⁻¹.

**Q.** And the Km [2]?
**A.** The Km was 85.39 ± 10.62 µM.

**Q.** What about the Vmax [2] of the same protein?
**A.** The Vmax was 16.1 µmol/min/mg.

**Q.** What about the kcat [2] of the same protein?
**A.** Its kcat is 269 ± 22.8 s⁻¹.

**Q.** And the kcat/Km [2]?
**A.** Its kcat/Km is 3.14e+06 ± 640000 M⁻¹ s⁻¹.

B3: CsSCPL13-IA (Camellia sinensis var. sinensis) (protein)
chain: MVQVEAIAASQKQLLQKPSCAWIRWVQNHLLLQLLLAQPVLGGQIVKYLPGFDGELPFKLETGQLKSDDGFVVDFDRYISVDDSELFYYFIESEGNPQEDPLFLWLTGGPGCTSFSGLLYEVGPMEYDIDNYTGGLPKLKYYPYARTKTASMIFLDAPVGTGFSYARTPGGWPTSDTKSAEQSYQFLRKWLVEHPQFLSVQLFVGGDSYAGLAVPLITKKIIDGNKEKAEPYMNIKGYLVGCPGTDSVIDGNSRVDFAHRMALISDEIYENAKRSCNENYINVDPANTACITAMGAVQKCLEDLSDKDILKPKCDLSSQDHPEGPDRRFLKEGSSEFLLSPSTFPKSWCTTLKLTHNSIWANDDGVQEALHVRKGTVPRWERCNNSLSYTKDVSSVIAVHKELSRSSLEVLVESGDHDISVPYMGTLKWIKSLNLTLVDDWRPWFVDNQVAGYTMKYSEEHGYHLTFATIKGAGHPAPEYYRRECYCLFDRWINYNPV
notes: full length, His-tag (pDEST17); E. coli; nickel resin, partially purified; 498 residues, 56 kD
**Q.** How did the Km (purified protein) turn out when B3 was run?
**A.** Its Km is 49.73 ± 8.36 µM.

**Q.** What about the Vmax (purified protein) of the same protein?
**A.** The Vmax was 20.4 µmol/min/mg.

**Q.** And the kcat (purified protein)?
**A.** Its kcat is 340 s⁻¹.

**Q.** And the kcat/Km (purified protein)?
**A.** Its kcat/Km is 6.84e+06 M⁻¹ s⁻¹.

**Q.** What about the Km [1] of the same protein?
**A.** Its Km is 10.43 ± 1.25 µM.

**Q.** What about the Vmax [1] of the same protein?
**A.** Its Vmax is 3.67 µmol/min/mg.

**Q.** What about the kcat [1] of the same protein?
**A.** Its kcat is 61 ± 8.82 s⁻¹.

**Q.** And the kcat/Km [1]?
**A.** The kcat/Km was 5.85e+06 ± 840000 M⁻¹ s⁻¹.

**Q.** What about the Km [2] of the same protein?
**A.** The Km was 160.41 ± 21.2 µM.

**Q.** And the Vmax [2]?
**A.** The Vmax was 37 µmol/min/mg.

**Q.** What about the kcat [2] of the same protein?
**A.** The kcat was 617 ± 62.5 s⁻¹.

**Q.** And the kcat/Km [2]?
**A.** Its kcat/Km is 3.85e+06 ± 420000 M⁻¹ s⁻¹.
